One assay addresses T1, 4H478-AA.
T1 chain: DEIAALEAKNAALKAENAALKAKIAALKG
Put plainly: two-hybrid library CCmax.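 Note: natural log of median RNA to DNA barcode read ratio; higher means stronger binding.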 Particulars: mean of both orientations.

Another assay has as its target T2, 4H428-AA.
T2 chain: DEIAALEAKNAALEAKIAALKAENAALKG
Kind of assay: two-hybrid library CCmax.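 Note: natural log of median RNA to DNA barcode read ratio; higher means stronger binding.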 Particulars: mean of both orientations.

In a further assay the target is T3, 4H3920-AA.
T3 chain: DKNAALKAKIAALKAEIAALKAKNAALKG
Put plainly: two-hybrid library CCmax.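 Note: natural log of median RNA to DNA barcode read ratio; higher means stronger binding.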 The note with it: mean of both orientations.

The next assay deals with T4, 4H3709-AA.
T4 chain: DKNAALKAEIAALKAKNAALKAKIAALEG
Kind of assay: two-hybrid library CCmax.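 Note: natural log of median RNA to DNA barcode read ratio; higher means stronger binding.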 The note with it: mean of both orientations.

The next assay deals with T5, 4H3939-AA.
T5 chain: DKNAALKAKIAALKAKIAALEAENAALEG
Put plainly: two-hybrid library CCmax.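 Note: natural log of median RNA to DNA barcode read ratio; higher means stronger binding.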 Particulars: mean of both orientations.

The target of a further assay is T6, 4H3591-AA.
T6 chain: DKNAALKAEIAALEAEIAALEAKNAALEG
Put plainly: two-hybrid library CCmax.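 Note: natural log of median RNA to DNA barcode read ratio; higher means stronger binding.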 Particulars: mean of both orientations.

In the next assay the target is T7, 4H971-AA.
T7 chain: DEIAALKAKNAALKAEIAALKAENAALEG
Put plainly: two-hybrid library CCmax. Particulars: mean of both orientations.

The target in the next assay is T8, 4H3628-AA.
T8 chain: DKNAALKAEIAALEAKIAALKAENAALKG
Put plainly: two-hybrid library CCmax. Particulars: mean of both orientations.

The next assay has as its target T9, 4H675-AA.
T9 chain: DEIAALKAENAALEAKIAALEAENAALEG
Kind of assay: two-hybrid library CCmax. Particulars: mean of both orientations.

Another assay addresses T10, 4H391-AA.
T10 chain: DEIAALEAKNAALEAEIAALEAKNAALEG
Put plainly: two-hybrid library CCmax. Particulars: mean of both orientations.

For a further assay, the target named is T11, 4H497-AA.
T11 chain: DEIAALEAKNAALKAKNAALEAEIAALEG
Kind of assay: two-hybrid library CCmax. Particulars: mean of both orientations.

Another assay concerns the target T12, 4H3666-AA.
T12 chain: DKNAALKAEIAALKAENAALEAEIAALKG
Kind of assay: two-hybrid library CCmax. The note with it: mean of both orientations.

Another assay concerns the target T13, 4H3446-AA.
T13 chain: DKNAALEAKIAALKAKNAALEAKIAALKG
Put plainly: two-hybrid library CCmax.

Another assay concerns the target T14, 4H656-AA.
T14 chain: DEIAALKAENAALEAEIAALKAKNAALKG
Kind of assay: two-hybrid library CCmax. The note with it: mean of both orientations.

The target of the next assay is T15, 4H87-AA.
T15 chain: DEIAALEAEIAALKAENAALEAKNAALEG
Kind of assay: two-hybrid library CCmax. The note with it: mean of both orientations.

The target in the next assay is T16, 4H816-AA.
T16 chain: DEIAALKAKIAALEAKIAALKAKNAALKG
Put plainly: two-hybrid library CCmax.

For a further assay, the target named is T17, 4H855-bA.
T17 chain: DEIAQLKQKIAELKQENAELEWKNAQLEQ
Put plainly: two-hybrid library CCNG1.

A further assay concerns the target T18, 4H883-bA.
T18 chain: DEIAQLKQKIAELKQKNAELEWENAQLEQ
Put plainly: two-hybrid library CCNG1.

In the next assay the target is T19, 4H797-bA.
T19 chain: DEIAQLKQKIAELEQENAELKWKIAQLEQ
Kind of assay: two-hybrid library CCNG1.

Another assay deals with T20, 4H968-bA.
T20 chain: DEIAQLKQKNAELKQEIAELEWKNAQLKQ
Put plainly: two-hybrid library CCNG1.

The target in the next assay is T21, 4H908-bA.
T21 chain: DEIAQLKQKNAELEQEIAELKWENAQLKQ
Put plainly: two-hybrid library CCNG1.

The target in a further assay is T22, 4H953-bA.
T22 chain: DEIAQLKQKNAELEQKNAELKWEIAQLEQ
Put plainly: two-hybrid library CCNG1.

In another assay the target is T23, 4H967-bA.
T23 chain: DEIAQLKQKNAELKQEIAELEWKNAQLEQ
Put plainly: two-hybrid library CCNG1.

The target of a further assay is T24, 4H918-bA.
T24 chain: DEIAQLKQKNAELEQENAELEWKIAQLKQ
Kind of assay: two-hybrid library CCNG1.

For the molecule DKNAALEAKIAALKAKNAALEAKIAALKG [4H3446-AA], the interaction score with 4H478-AA is -1.66; in the assay with 4H428-AA it was -0.892; with 4H3920-AA, -1.52; with 4H3709-AA, -0.0647; with 4H3939-AA, -1.83; in the assay with 4H3591-AA, -0.816. Besides, the interaction score with 4H971-AA was -1.14; with 4H3628-AA it was -1.96; in the assay with 4H675-AA, -0.821; in the assay with 4H391-AA, 0.726; in the assay with 4H497-AA, -1.57; with 4H3666-AA, 0.18. Further, the values for the interaction score in the assay with 4H3446-AA and with 4H656-AA were -0.619 and -0.701, respectively.
Consider DEIAALKAKIAALEAKIAALKAKNAALKG [4H816-AA], for which the values for the interaction score with 4H87-AA and with 4H816-AA were 0.567 and 1.02, respectively.
As for DEIAQLKQKIAELEQENAELKWKIAQLEQ [4H797-bA], the interaction score in the assay with 4H855-bA was 0.572; in the assay with 4H883-bA it was -0.129; with 4H797-bA, 0.406; with 4H968-bA, -1.67; in the assay with 4H908-bA, -0.499; with 4H953-bA, -0.848. Also, the interaction score with 4H967-bA was -0.372; with 4H918-bA, 0.787.

The values above are taken from publication PMC10397247.
